# Measurements reported in patent US20260209266A1.
# Key:
# [1] = target: Protein A (immobilized on a chromatography column) (UniProt P38507); assay: Protein A chromatography, linear pH gradient
# [2] = target: Protein A (immobilized on a chromatography column) (UniProt P38507); assay: Protein A chromatography (rProtein A FF), step gradient, 20 mM sodium citrate, 1 M NaCl
Substance,elution pH from Protein A column [1] [pH],elution pH from Protein A column [2] [pH]
IgG1 heterodimer having two IgG1 heavy chains identical but for an H435R/Y436F dipeptide modification in one CH3 domain (antibody),3.9,–
differentially modified heterodimeric human IgG2 Fc/ΔAdpFc (from UniProt P01859 99-219; P01859 99-219),–,4.5
differentially modified heterodimeric human IgG4 (Fc/ΔAdpFc) (from UniProt P01861 99-220; P01861 99-220),–,4
